{"source": "patent US20200407428A1", "about": "(GOVERNMENT OF THE UNITED STATES OF AMERICA AS REPRESENTED …, published 2020)", "binders": {"B1": {"name": "R4B11 scFv-Fc (Fc fusion)", "VH": "QVQLEQSGAEVREPGASVKVSCKASGLTSGSYAITWVRQAPGQGLEWMGVIIPLVGVTNYAEKFQGRVTFTADTSTSTAYMELTSLRSDDTATYYCARDPFCSGNGCYGYYDVWGPGVKVTVSS", "VL": "DIELTQSPSSLSASVGDRVTITCRASQDISSWLAWYQQKPGKAPKLLISSASTLQSGVPSRFSGSGSGTDFTLTINSLQSEDFATYYCQQYNSVPLTFGGGTKVEMK"}, "B2": {"name": "scFv R3C4 (scFv, V domains shown)", "VH": "B1 VH with R12K, E13K, L27F, T35S, T84S, D89E, Y95F, F101Y, Y110W, K119L", "VL": "DIELTQSPSSLSASVGDKVTISCRASQYIKSWLAWYQQKPGKAPKLLIYKASSLQSGVPSRFSGSGSGTDFTLTITNVQPEDFATYYCQQYDSAPFTFGPGTKLDIR"}, "B3": {"name": "scFv R4B11 (scFv, V domains shown)", "VH": "B1 VH", "VL": "B1 VL"}, "B4": {"name": "scFv R4G7 (scFv, V domains shown)", "VH": "EVQLLESGGDLVQPGESLRLSCVVSGISFSNHGMTWVRQAPGKGLDWVSSIDSDGGGTFYADSVKGRFTISRDDSNNTVSLQMNSLRVEDTAVYYCAARHEYSDYYWGRGVPVTVSS", "VL": "DIELTQSPSILSVSPGERATLSCRASQSVGNRLAWYHQRPGQAPRLLIYGASSRPTGIPDRFSASGSGTEFTLTISSLEPEDVGVYYCQQNSKWPLTFGGGTKVEIK"}, "B5": {"name": "scFv R3H2 (scFv, V domains shown)", "VH": "B4 VH with D10G, I27L, M34V, S53T, A61G, N76K, Q82E, H100Q", "VL": "B4 VL with S9A, V13L, S22L, S28N, A64G, N91D, K93N, K103R"}, "B6": {"name": "scFv R4G11 (scFv, V domains shown)", "VH": "B4 VH with L5V, E6Q, D10G, I27L, M34V, S53T, A61G, N76K, Q82E, H100Q", "VL": "B4 VL with I10T, N31S, A64G, V85L"}, "B7": {"name": "scFv R4G8 (scFv, V domains shown)", "VH": "EVQLVESGGGLVQPGESLRLSCVVSGLSFSNHGVTWVRQAPGKGLDWVSSIDTDGGGTFYGDSVKGRFTISRDNSKSTVSLEMNSLRVEDTAVYYCAARQEYSDYYWGRGVLVTVSS", "VL": "B4 VL with S9A, V13L, S22L, S28N, A64G, N91D, K93N, K103R"}, "B8": {"name": "scFv R4H12 (scFv, V domains shown)", "VH": "B7 VH with E1Q, V5L, N74D, S77N, L112P", "VL": "B4 VL with D1E, I10T, N31S, R39S, V85L"}}, "note": "Substitutions are numbered along the chain they refer to."}
{"molecular_target": "T1, Glycoprotein of Ravn virus in whole irradiated virus (Ravn virus, UniProt Q1PDC7 19-681)", "T1 sequence": "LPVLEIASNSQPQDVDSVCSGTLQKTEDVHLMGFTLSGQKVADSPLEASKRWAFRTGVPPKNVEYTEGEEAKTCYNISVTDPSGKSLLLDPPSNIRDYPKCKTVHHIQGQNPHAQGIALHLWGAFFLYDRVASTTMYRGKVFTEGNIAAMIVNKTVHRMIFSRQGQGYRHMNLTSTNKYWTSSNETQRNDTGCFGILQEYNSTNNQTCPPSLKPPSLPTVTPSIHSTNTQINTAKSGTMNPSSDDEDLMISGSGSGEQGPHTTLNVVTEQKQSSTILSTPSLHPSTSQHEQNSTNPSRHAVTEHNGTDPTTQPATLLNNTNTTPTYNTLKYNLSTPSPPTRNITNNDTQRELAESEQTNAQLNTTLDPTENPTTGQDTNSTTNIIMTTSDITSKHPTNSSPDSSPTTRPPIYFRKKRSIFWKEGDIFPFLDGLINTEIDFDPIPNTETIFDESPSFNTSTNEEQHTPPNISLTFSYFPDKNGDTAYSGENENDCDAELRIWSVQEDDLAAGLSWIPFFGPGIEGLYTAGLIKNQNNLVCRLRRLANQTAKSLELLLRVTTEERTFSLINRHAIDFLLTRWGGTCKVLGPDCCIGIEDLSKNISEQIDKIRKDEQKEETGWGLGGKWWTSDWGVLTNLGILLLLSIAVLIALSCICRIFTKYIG", "assay": "Western blot on whole irradiated virus, reduced"}
{"binder": "B1", "binding result": "no binding (tested: 1 ug/ml)"}
{"molecular_target": "MARV Ci67 GP1-649 (Marburg virus, isolate Ci67)", "assay": "SPR (BIAcore 3000), GP1-649 amine-coupled on CM5, scFv in solution", "units": {"Kd": "nM", "koff": "s⁻¹", "kon": "M⁻¹ s⁻¹"}}
{"binder": "B2", "Kd": 33, "koff": 0.000386, "kon": 11600}
{"binder": "B3", "Kd": 4.6, "koff": 0.000407, "kon": 87600}
{"binder": "B4", "Kd": 4.6, "koff": 0.000379, "kon": 81900}
{"binder": "B5", "Kd": 155, "koff": 0.000993, "kon": 6390}
{"binder": "B6", "Kd": 6.3, "koff": 0.000475, "kon": 75000}
{"binder": "B7", "Kd": 68, "koff": 0.0063, "kon": 92300}
{"binder": "B8", "Kd": 3.9, "koff": 0.000565, "kon": 146000}
{"molecular_target": "T2, Glycoprotein of Marburg virus isolate Musoke in whole irradiated virus (Marburg virus, isolate Musoke, UniProt P35253 19-681)", "T2 sequence": "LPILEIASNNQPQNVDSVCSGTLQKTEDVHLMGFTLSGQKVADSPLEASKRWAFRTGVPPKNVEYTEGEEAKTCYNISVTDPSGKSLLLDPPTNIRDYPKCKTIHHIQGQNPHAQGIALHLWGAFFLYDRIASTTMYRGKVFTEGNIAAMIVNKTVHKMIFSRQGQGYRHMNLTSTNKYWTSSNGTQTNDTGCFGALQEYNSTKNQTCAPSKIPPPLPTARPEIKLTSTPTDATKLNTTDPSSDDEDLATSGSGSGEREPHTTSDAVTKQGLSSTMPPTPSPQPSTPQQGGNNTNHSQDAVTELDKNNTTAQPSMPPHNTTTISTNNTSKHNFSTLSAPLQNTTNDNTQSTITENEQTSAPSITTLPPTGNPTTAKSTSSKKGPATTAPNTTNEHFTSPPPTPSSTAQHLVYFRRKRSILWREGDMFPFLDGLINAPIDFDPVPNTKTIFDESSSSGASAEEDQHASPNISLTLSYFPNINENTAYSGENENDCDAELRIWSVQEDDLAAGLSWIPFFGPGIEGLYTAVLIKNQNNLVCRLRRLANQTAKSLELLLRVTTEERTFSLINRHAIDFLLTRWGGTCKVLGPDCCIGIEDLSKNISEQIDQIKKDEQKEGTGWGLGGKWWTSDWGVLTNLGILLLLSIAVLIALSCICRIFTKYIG", "assay": "Western blot of scFv-Fc on whole irradiated virus, reduced"}
{"binder": "B1", "binding result": "binds"}
